Assay results published in the nanobody polyreactivity screen of Harvey et al. (2022).

Experiment: yeast display, Sf9 membrane polyspecificity reagent, FACS + sequencing; frameworks hold sequencing errors
Method in brief: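 Nanobodies from a synthetic yeast display library (Saccharomyces cerevisiae BJ5465), induced 36–48 hours with galactose, were stained 1 hour at 4 °C with 10% biotinylated, detergent-solubilized Sf9 membrane reagent, enriched on streptavidin microbeads, then FACS-sorted. Anti-HA (expression) and streptavidin (reagent binding) fluorescence set low and high (top ~1%) gates. Polyreactivity labels come from the gate of origin. Genes were colony-PCR amplified, MiSeq 2 × 250 sequenced and filtered by CDR length.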
In the case of “QDQLVESGGGLVQAGGSLRLSCAASGRTFVKYAMGWYRQAPGKERELVAAISRRGGSTYYADSVKGRFTISRDNAKNTVYLQMNSLKPEDTAVYYCAVSIGRYPYRYGYWGQGTQVTVSS”, the “polyreactivity (PSR sort gate)” value is reported as “high polyreactivity”.
In the case of “QDQLVESGGGLVQAGGSLRLSCAASGRTFYLYAMGWYSQAPGKEREFVAVINSSGGSTYYADSVKGRFTISRDNAKNTVYLQMNSLKPEDTAVYYCAAYPIPRGRDYWGPGTQVTVSS”, the “polyreactivity (PSR sort gate)” value is reported as “low polyreactivity”.
In the case of “QDQLVESGGGLVQAGGSLRLSCAASGRTYGSYAMGWYRQAPGQEMELVAAISRSDGSTYYADSVKGRFTISRDNAKNTVYLQMNSLKPEDTAVYYCAAKRWYVSYDYDYWGQGTQVTVSS”, the “polyreactivity (PSR sort gate)” value is reported as “high polyreactivity”.
In the case of “QDQLVESGGGLVQAGGSLRLSCAASGSIFLDNAMGWYRQAPGKERELVAAISKSGTRTYYADSVKGRFTISRDNAKNTVYLQMNSLKPEDTAVYYCNVVPKQAKSVELIGYYYWGQGTQVTVSS”, the “polyreactivity (PSR sort gate)” value is reported as “high polyreactivity”.
For “QDQLVESGGGLVQAGGSLRLSCAASGSIFRYYAMGWYIQAPGKERELVAAITNSGGSTYYADSVKGRFTISRDNAKNTVYLQMNSLKPEDTAVYYCNARFRARPRMGYWGQGTQVTVSS”, the “polyreactivity (PSR sort gate)” value was “high polyreactivity”.
In the case of “QDQLVESGGGLVQAGGSLRLSCAASGSIFTHNAMGWYRQAPGKERELVAAISSGGSTNYADSVKGRFTFSRDNAKNTVYLQMNSLKPEDTAVYYCAKSIDGWYWRRRRYDYWGQGTQVTVSS”, the “polyreactivity (PSR sort gate)” value is reported as “low polyreactivity”.
With “QDQLVESGGGLVQAGGSLRLSCAASGSIFTKYAMGLYRQAPGKEREFVAAIDVNGGSTRYADSVKGRFTISRDYANNTVYLQMYSLKPEDTAVYYCAKDYTASYYPQGLYDYWGQGTQVTVSS” the “polyreactivity (PSR sort gate)” value was “low polyreactivity”.
For “QDQLVESGGGLVQAGGSLRLSCAASGSIFVENDMGWYRQAPGKERELVAVITSGGSTYYADSVKGRFTISRDNAKNTVYLQMNSLKPEDTAVYYCNKDYAAIDRYDSWGQGTQVTVSS”, the “polyreactivity (PSR sort gate)” value was “low polyreactivity”.
With “QDQLVESGGGLVQAGGSLRLSCAASGSIFVSYTMGWYRQAPGKERELVAAITRSGGSTYYADSVKGRFTISRDNAKNTVYLQLNSLKPEDTAVYYCNATPANKYYRSTRGYAYNYWGQGTQVTVSS” the “polyreactivity (PSR sort gate)” value was “low polyreactivity”.
With “QDQLVESGGGLVQAGGSLRLSCAASGSIFVYNTMGWYRQAPGKERELVAAISSSGGSTYYADSVKGRFTISRDNAKNTVYLQMNSLKPEDTAVYYCAAVNGYQYAPYYYNGYDFWGQGTQVTVSS” the “polyreactivity (PSR sort gate)” value was “low polyreactivity”.
In the case of “QDQLVESGGGLVQAGGSLRLSCAASGSIFWSNAMGWYRQAPGKERELVASISSSGSTYYADSVKGRFTISRDNAKNTVYLQMNSLKPEDTGVYYCAAGSAYYSQRYFAYGYDSWGQGTQVTVSS”, the “polyreactivity (PSR sort gate)” value is reported as “low polyreactivity”.
For “QDQLVESGGGLVQAGGSLRLSCAASGSILIHNAMGWSRQAPGKERELVAAITSGGSTNYADSVKGRFTISRDNAKNTVYLQMNSLKPEDTAVYYCATAVGRVLVGYDYWGQGTQVTLSS”, the “polyreactivity (PSR sort gate)” value was “low polyreactivity”.
For “QDQLVESGGGLVQAGGSLRLSCAASGSILLLNMGWYRQAPGKEMELVASIRWSGGITYYADSVKGRFTISRDNAKNTVYLQMNSLKPEDTAVYYCAARTYRYFGRYDYWGQGTQVTVSS”, the “polyreactivity (PSR sort gate)” value was “high polyreactivity”.
In the case of “QDQLVESGGGLVQAGGSLRLSCAASGSILVRNARGWYRQAPGKERELVASIDSGTSTNYADSVKGRFTISRDNAKTTVYLQLNSLKPEDTAVYYCAADWYYLWGRYYFWGQGTQVTVSS”, the “polyreactivity (PSR sort gate)” value is reported as “high polyreactivity”.
For “QDQLVESGGGLVQAGGSLRLSCAASGSISWVYSMGWYRQAPGKEREFVAAISESGDTYYADSVKGRFTISRDNAKNTVYLQMNSLKPEDTAVYYCAATSPDGVTYDYWGHGTQVTVSS”, the “polyreactivity (PSR sort gate)” value was “low polyreactivity”.
With “QDQLVESGGGLVQAGGSLRLSCAASGSTFFGNAMGWSRQAPGKERELVAAISRGGGSTYYADSVKGRLTISRDNAKNTVYLQMNCLKPEDTAVYYCNADDPWTGTAVSTPNDSWGQGTQVTVSS” the “polyreactivity (PSR sort gate)” value was “low polyreactivity”.
For “QDQLVESGGGLVQAGGSLRLSCAASGSTFKYYAMGWYRQAPGKERELVAAISWTGGSTYYADSVKGRFTISRDNAKNTVYLQMNSLKPEDTAVYYCNAMGHVQGYDYWGQVTQVTVSS”, the “polyreactivity (PSR sort gate)” value was “high polyreactivity”.
For “QDQLVESGGGLVQAGGSLRLSCAASGSTFPKYAMGWYRQAPGKERELVASISVTTGSTYYADSVKGRFTISRDNAKNTVYLQMNSLKPEDTAVYYCPKRTYSRKFRGAYNYWGQGTQVTVSS”, the “polyreactivity (PSR sort gate)” value was “high polyreactivity”.
In the case of “QDQLVESGGGLVQAGGSLRLSCAASGSTFPNNAMGWYREAPGKERELVATITTGGSTYYADSVKGRFTISRDNAKNTVYLQMNSLKPEDTAVYYCAADHLSYRRRYEYWGQGTQVTVSS”, the “polyreactivity (PSR sort gate)” value is reported as “low polyreactivity”.
With “QDQLVESGGGLVQAGGSLRLSCAASGSTFVPNAMGWYRQAPGKERELVAVISDSGVTTYYADSVKGRFTISRDNAKNTVYLQMNSLKPEDTAVYYCAARQDTWDAYLSTGEFDYWGQGTQVTVSS” the “polyreactivity (PSR sort gate)” value was “high polyreactivity”.
With “QDQLVESGGGLVQAGGSLRLSCAASGSTLNGNAMGWYRQAPGKERELVAAITTSGGSTYYADSVKGRFTISRDNAKNTVYLQMNSLKPEDTAVYYCNKLIGRRYGWANGYDYWGQGTQVTVSS” the “polyreactivity (PSR sort gate)” value was “low polyreactivity”.
In the case of “QDQLVESGGGLVQAGGSLRLSCAASGSTVYFNAMGWYRPAPGKERELVASITSGGSTNYADSVKGRFTISRDNAKNTVYLQMNCLKPEDTAVYYCAAGLYLQGPLDYWGQGTQVTVSS”, the “polyreactivity (PSR sort gate)” value is reported as “low polyreactivity”.
With “QDQLVESGGGLVQAGGSLRLSCAASGTIFFGYSMGSYRQAPGKERDLVASISSADTTYYADSVKGRFTISRDNAKNTVYLQMNSLKPEDTAVYYCAAREGQLWEDGDYWGQGTQVTVSS” the “polyreactivity (PSR sort gate)” value was “low polyreactivity”.
For “QDQLVESGGGLVQAGGSLRLSCAASVSTFILNAMGWYRQAPGKERELVATISSSDTSTYYADSVKGRFTISRDNAKNTVYLQMNSLKPEDTAVYYCNADYYTTSYLQRVYHYGVEYDYWGQGTQVTVSS”, the “polyreactivity (PSR sort gate)” value was “low polyreactivity”.
In the case of “QDQLVESGGGLVQAGGSLRLSCAAYGSILGGNAMGWYRPAPGKERELVAAITFSGGGTYYADSVKGRFTISRDNAKNTVYLQMNSMKPEDTAVYYCAADKDGYTYEFDYWGQGTQVTVSS”, the “polyreactivity (PSR sort gate)” value is reported as “low polyreactivity”.
With “QDQLVESGGGLVQAGGSLRLSCAPSGFIFSNYAMGWYRHGPGKERELVAAISFTGSNTYYADSVKGRFTISRDYAKNTVYLKMNSLKPEDTAVYFCNAPLEWGVYAAQNWDEGYWGQGSQVTVSS” the “polyreactivity (PSR sort gate)” value was “low polyreactivity”.
In the case of “QDQLVESGGGLVQAGGSLRLSCASSGFTFSKNAMGWYRQAPGKERELVAAISRGGGRTYYADSVKGRFTISRDNAKNTVYLQMNSLKPEDTAVYYCNVEKVGPGYDYWGQGTQVTVSS”, the “polyreactivity (PSR sort gate)” value is reported as “high polyreactivity”.
In the case of “QDQLVESGGGLVQAGGSLRLSCASSGLIFYTSSMGWYSQAPGKESGLVAAITRSDSSTYYADSVKGRFTISRDNATNTVYLQMTSLKPEDPAVYYFATPSVFLFSEYDYWGQGTKVTVSS”, the “polyreactivity (PSR sort gate)” value is reported as “low polyreactivity”.
For “QDQLVESGGGLVQAGGSLRLSCASSGYIFYYNAMGWYRQAPGKEWELVAAITGDSGTYYADSVKGRFTISRDNAKNTFYFQMNCLKPEDTAVYYCNAYTFYQYYRWYVYWGQVTQVTVSS”, the “polyreactivity (PSR sort gate)” value was “low polyreactivity”.
With “QDQLVESGGGLVQAGGSLRLSCDASGSIFRYYTMGWYRQAHGQERELVARISYSGGRTYYAVSVKGRFTISRDNAKNTVYLQMNSLKPEDTAVYYCNTVTRWVGKLEYWGHGTQVTVSS” the “polyreactivity (PSR sort gate)” value was “high polyreactivity”.
For “QDQLVESGGGLVQAGGSLRLTCAASGFNYRRNAMGWYRQAPGKERELVAAITASGGRTYYADSVKGRFTISRDNAKNTVYLQMNSLKPEDTAVDYCARDTAGFTRFSSKYDYWGQGTQVTLSS”, the “polyreactivity (PSR sort gate)” value was “high polyreactivity”.
With “QDQLVESGGGLVQAGGSLRLTCAASGSTFGVYTMGWYRQAPGKERELVAAITKSGGSTYYADSVKGRFTISRDNAKNTVYLQMNSLKPEETAVYYCATDADRPPRTPDISYVSNFDYWGQGTQVTVSS” the “polyreactivity (PSR sort gate)” value was “low polyreactivity”.
In the case of “QDQLVESGGGLVQAGGSLSLSCAASGSTFPYYAMGWSRPAPGKERELVAAISGSGGTTYYADSVKGRFTISRDNAKNTVYLQMNSLKPEDTAVYYCAVDIGVGYGYYYWGQGTQVTVSS”, the “polyreactivity (PSR sort gate)” value is reported as “low polyreactivity”.
With “QDQLVESGGGLVQAGGSLSLSCAASGSTFQPYTMGWYRQAPGKERELVAAITGRGGSTYYADSVKGRFTISRDNAKNTVYLQMNSLKPEDTAVYYCAAGAYRRNKSDYYYWGQGTQVTVSS” the “polyreactivity (PSR sort gate)” value was “low polyreactivity”.
For “QDQLVESGGGLVQAGGSLSLSCAAYGRIFSYNAMGWYRQAPGKERELVAAISYSGGRTYYADSVKGRFTISRDTAKNTVYLQMNSLKPEDTAVYYCAAEAHLAGYYRYYGGYGYDYWGQGTQVTVSS”, the “polyreactivity (PSR sort gate)” value was “high polyreactivity”.
For “QDQLVESGGGLVQAGGSLSLSCADSGLTFGANTMGWYRQAPGKERELVATITQSVGRTYYADSVKGRFTISRDNAKNTVYLQMNSLKPEDTADYYCNAELYTVRVYTHPVYVRHDYWGQGTQVTVSS”, the “polyreactivity (PSR sort gate)” value was “high polyreactivity”.
In the case of “QDQLVESGGGLVQEGGSLRLSCAASVRIFGPYAMGWYRQAPGKERELLAAITRGGSTSYADSVKGRFTISRDNAKNTVYLQMNSLKPEDTAVYYCAADTLRWWDGFDYWGQGTQVTVST”, the “polyreactivity (PSR sort gate)” value is reported as “low polyreactivity”.
In the case of “QDQLVESGGVLVQAGGSLRLSCAASGNIFAVYAMGWYRQAPGKERELVAAITTGTNTYADSVKGRFTISRDNAKNTVYLQMNSLKTEDTAVYYCAARSYRPLDYWGQGTQVTVSS”, the “polyreactivity (PSR sort gate)” value is reported as “low polyreactivity”.
With “QDQLVESRGGLVQAGCSLRLSCAASGFIFLHYTMGSYRQAPRKERELVAGITYGHGSTSYADSVKGRFTISRDNAKNTVYLQMNRLKPEDTAVYYCATRYWYRTSYQLYDYWGQGTQVTVSS” the “polyreactivity (PSR sort gate)” value was “low polyreactivity”.
With “QDQLVESRGGLVQAGGSLRLSCAASGRTFISNAMGWYRQAPGKERELVAADISWSGGSTYYADSVKGRFTISRDNAKNTVYLQMNIMKPEDTAVYYCNTVIRPYLAYTWSEIFDYWGQGTQVNVSS” the “polyreactivity (PSR sort gate)” value was “low polyreactivity”.
